Measured values as given in EP3904368A2.

Biological target: Acetylcholine receptor on AchR-overexpressed TE671 cells
Assay: cell-based or functional assay

## Synake (peptide)
  IC50 value for AchR (inhibition of AchR action, TE671 cells): 75 µM
